From US20200262888A1 (HANMI PHARM, published 2020)
Non-standard residues stand in square brackets, D forms with d. No end group written: not given here. *: point of attachment. Acetyl(2-(4-imidazolyl)) = O=C(Cc1c[nH]cn1)*

T1: human GLP-2 receptor (human, UniProt O95838 1-553)
T1 sequence (looked up): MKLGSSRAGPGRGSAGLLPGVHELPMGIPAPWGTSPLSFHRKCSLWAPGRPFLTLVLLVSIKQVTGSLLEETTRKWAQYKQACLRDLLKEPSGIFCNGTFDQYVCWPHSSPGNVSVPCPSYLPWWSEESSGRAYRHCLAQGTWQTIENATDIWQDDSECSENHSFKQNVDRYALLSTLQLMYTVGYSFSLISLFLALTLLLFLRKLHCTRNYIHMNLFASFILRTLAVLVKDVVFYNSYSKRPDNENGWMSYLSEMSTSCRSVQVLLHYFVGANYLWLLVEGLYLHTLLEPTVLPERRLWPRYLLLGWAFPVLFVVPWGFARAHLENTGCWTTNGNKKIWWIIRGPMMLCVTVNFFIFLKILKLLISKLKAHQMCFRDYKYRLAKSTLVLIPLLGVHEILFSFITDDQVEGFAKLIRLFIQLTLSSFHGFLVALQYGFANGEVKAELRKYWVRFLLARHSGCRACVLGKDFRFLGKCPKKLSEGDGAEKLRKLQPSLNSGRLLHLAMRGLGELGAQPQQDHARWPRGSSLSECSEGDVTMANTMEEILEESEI


Target: T1, human GLP-2 receptor
Assay: cell-based or functional assay

In vitro activity compared to human GLP-2 (%) (relative titer from EC50 of cAMP accumulation, CHO-K1 cells expressing human GLP-2 receptor)	Molecule
148%	Teduglutide (Gattex, Shire) (peptide)
333%	[Acetyl(2-(4-imidazolyl))]GDGSFSDEMNTILDNLAARDFINWLIQTRITDK [CA GLP-2 RK]
120%	[Acetyl(2-(4-imidazolyl))]GDGSFSDEMNTILDNLAARDFINWLIQTRITDC [CA GLP-2 RC]

More lines, now with the values behind:

Molecule	In vitro activity compared to human GLP-2 (%) (relative titer from EC50 of cAMP accumulation, CHO-K1 cells expressing human GLP-2 receptor)
XGDGSFSDEMNTILDNLAARDFINWLIQTKITDC (position 1 is imidazoacetyldeshistidine (caH) instead of histidine) [CA GLP-2 KC]	149%
XGDGSFSDEMNTILDNLAARDFINWLIQTKITDK (position 1 is imidazoacetyldeshistidine (caH) instead of histidine) [CA GLP-2 KK]	206%
